In IntAct's records for PubMed 24704786:

B1: Interferon alpha/beta receptor 1 (Homo sapiens), P17181-1 (parent)
chain: MMVVLLGATTLVLVAVAPWVLSAAAGGKNLKSPQKVEVDIIDDNFILRWNRSDESVGNVTFSFDYQKTGMDNWIKLSGCQNITSTKCNFSSLKLNVYEEIKLRIRAEKENTSSWYEVDSFTPFRKAQIGPPEVHLEAEDKAIVIHISPGTKDSVMWALDGLSFTYSLVIWKNSSGVEERIENIYSRHKIYKLSPETTYCLKVKAALLTSWKIGVYSPVHCIKTTVENELPPPENIEVSVQNQNYVLKWDYTYANMTFQVQWLHAFLKRNPGNHLYKWKQIPDCENVKTTQCVFPQNVFQKGIYLLRVQASDGNNTSFWSEEIKFDTEIQAFLLPPVFNIRSLSDSFHIYIGAPKQSGNTPVIQDYPLIYEIIFWENTSNAERKIIEKKTDVTVPNLKPLTVYCVKARAHTMDEKLNKSSVFSDAVCEKTKPGNTSKIWLIVGICIALFALPFVIYAAKVFLRCINYVFFPSLKPSSSIDEYFSEQPLKNLLLSTSEEQIEKCFIIENISTIATVEETNQTDEDHKKYSSQTSQDSGNYSNEDESESKTSEELQQDFV

Variants of: B1
Conditions: with tyk2_human TYK2, P29597
Sequence of tyk2_human TYK2, P29597 (P29597 whole entry): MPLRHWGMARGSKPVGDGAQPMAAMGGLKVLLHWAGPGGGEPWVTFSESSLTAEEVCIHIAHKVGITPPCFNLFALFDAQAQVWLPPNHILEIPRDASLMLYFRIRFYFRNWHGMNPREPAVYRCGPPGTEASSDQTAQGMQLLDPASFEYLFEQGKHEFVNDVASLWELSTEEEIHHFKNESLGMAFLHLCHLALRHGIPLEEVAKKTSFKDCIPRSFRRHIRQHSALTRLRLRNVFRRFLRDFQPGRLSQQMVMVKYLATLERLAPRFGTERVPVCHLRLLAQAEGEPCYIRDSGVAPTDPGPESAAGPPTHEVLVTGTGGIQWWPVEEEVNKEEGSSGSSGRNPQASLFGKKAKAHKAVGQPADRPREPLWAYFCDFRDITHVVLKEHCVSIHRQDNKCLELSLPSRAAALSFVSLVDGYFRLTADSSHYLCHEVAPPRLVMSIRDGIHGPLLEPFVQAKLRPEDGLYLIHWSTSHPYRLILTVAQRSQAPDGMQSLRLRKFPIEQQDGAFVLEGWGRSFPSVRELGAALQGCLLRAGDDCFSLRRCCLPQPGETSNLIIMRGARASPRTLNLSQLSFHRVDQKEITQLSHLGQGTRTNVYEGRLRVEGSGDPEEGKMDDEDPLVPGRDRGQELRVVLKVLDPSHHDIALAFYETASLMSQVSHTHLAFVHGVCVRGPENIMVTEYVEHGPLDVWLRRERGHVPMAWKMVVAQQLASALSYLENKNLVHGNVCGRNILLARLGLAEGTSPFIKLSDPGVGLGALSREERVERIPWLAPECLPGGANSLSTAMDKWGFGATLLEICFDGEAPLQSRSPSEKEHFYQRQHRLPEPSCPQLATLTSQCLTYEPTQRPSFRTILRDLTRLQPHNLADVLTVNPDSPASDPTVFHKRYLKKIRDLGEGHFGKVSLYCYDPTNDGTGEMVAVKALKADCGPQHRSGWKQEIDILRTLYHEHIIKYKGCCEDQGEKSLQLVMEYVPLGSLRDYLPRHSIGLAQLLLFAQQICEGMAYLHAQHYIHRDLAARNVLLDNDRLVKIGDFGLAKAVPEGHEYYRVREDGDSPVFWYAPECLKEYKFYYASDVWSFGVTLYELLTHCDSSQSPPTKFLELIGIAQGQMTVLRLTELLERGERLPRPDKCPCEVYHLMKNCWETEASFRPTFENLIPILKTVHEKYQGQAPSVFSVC

Row | Variant | effect of a mutation on the interaction
1 | E497A | disrupting interaction strength
